This assay deals with Slit D2 (the Robo-binding domain of Slit) (Drosophila). Put plainly: SPR. (In general: In SPR one partner is held on a chip, and binding of the other changes the refractive index at the surface.)

With “Robo1 Ig1-5 fragment (Ig domain-containing portion of the Robo ectodomain) (domain or fragment)”, the Kd (in general, the concentration at which binding is half-saturated) amounted to 0.235 µM.

With “Robo2 Ig1-5 fragment (Ig domain-containing portion of the Robo2 ectodomain) (domain or fragment)”, the Kd was found to be 1.1 µM.

(Values after paper PMC4078746.)
